In publication doi:10.1101/2024.02.25.581951 one finds stoichiometry N data, which are given here for 1 molecule.

This assay addresses T1, IRF3 (mouse (endogenous in mouse ESCs)), P70671.
T1 chain: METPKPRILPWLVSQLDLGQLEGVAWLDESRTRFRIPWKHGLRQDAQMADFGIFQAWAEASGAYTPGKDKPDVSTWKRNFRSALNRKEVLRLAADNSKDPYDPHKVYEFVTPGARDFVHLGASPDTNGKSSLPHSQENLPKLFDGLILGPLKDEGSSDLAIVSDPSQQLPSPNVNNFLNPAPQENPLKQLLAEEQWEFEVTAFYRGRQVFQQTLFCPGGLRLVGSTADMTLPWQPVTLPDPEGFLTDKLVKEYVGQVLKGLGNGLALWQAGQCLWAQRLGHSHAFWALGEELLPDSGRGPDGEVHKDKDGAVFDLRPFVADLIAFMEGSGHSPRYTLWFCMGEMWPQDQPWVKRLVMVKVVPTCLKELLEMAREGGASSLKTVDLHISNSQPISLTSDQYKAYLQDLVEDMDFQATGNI
As to the kind of experiment: native gel or EMSA. As to conditions: remark: other sources report otherwise. For orientation: In EMSA bound probe runs differently from free probe, usually more slowly.

As a reminder, the stoichiometry N is the number of molecules, sites or subunits per partner or assembly.

B1: IRF3, P70671 1-419 (natural protein)
chain: T1 chain
B1 yielded a stoichiometry N of 2.
